B1: TplEi (natural protein)
chain: CTSFSSSRSSSMDKTGWITHCFGRFLIDLPPDAVINAGYYLWGDRIEYLDDKPTELAARVDRLEQEWRTQRHKSKGNMFLRKIDFGNESVGLLSWSSEVASKTYLLDTYVTSKPTWHVYRWKGKVSVDREQHAVEISRALARNLRSRAPKEIPSEPGFCIDHAYIAGDSFQVERFGVGVTFPEHPGARFEFRSSTGAELNSLLERVDGFVQNMLSTFAGMETLRKGKHPVGSLPGEEYLVAGSDKGQRGYTFMWEVQGKEESLTEPNLTAGLAVLERSNENGKPPPPAFKSDKEALELWDTIVDSIRVRPTSSSPRGGNAGPSPAPKPATPGGQTLGDHYVYEEFLSSLKPKDSWLDDL

What was measured:
Assay in all cases: ITC
TplEi = biological target: B1
G98A = biological target: G98A
I88A = biological target: I88A
L91A = biological target: L91A

| Binder | Ka (TplEi) | Kd (G98A) | Kd (I88A) | Kd (L91A) |
| --- | --- | --- | --- | --- |
| Ac-DDLFASIGALWTWAWRGPKARQELLKAEQVEVDD-NH2 [A peptides (“L” peptide, TplE 82-108 plus EQVEVDD)] | 7.98e+06 M⁻¹ |  |  |  |
| B1 |  | 1.31 µM | 4.8 µM | 3.7 µM |
| Ac-DDLFASIGALWTWAWRGPKARQELLKAEQ-NH2 [B peptides (“L” peptide, TplE 82-108 plus EQ)] | 2.09e+06 M⁻¹ |  |  |  |
